T1: DmFDL (Drosophila melanogaster FDL) (Drosophila melanogaster, UniProt Q8WSF3, W506A)
T1 construct: soluble form without transmembrane domain, alpha-factor secretion signal, N-terminal His-tag, P. pastoris X-33 (codon-optimized; also made in Hi5 insect cells), Ni-NTA purified
T1 sequence (Q8WSF3 37-660 W506A limits assumed): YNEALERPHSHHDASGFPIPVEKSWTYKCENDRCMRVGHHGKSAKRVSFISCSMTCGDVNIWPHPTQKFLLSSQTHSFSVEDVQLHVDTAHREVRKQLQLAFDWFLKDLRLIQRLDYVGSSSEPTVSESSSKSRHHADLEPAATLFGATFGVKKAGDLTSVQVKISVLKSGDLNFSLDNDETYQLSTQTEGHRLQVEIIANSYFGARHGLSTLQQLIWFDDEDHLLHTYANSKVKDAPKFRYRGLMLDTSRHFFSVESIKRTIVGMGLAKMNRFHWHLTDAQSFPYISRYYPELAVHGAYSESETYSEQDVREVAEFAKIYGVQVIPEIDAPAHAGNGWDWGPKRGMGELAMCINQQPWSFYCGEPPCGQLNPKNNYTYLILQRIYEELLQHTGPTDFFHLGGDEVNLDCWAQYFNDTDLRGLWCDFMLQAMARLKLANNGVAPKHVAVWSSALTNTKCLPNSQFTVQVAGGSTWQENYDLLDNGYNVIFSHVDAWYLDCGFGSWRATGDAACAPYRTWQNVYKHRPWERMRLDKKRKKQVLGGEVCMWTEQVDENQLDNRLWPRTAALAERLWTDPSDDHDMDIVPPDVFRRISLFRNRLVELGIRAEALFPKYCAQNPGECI

T2: DmFDL (Drosophila melanogaster FDL) (Drosophila melanogaster, UniProt Q8WSF3, G400V)
T2 construct: soluble form without transmembrane domain, alpha-factor secretion signal, N-terminal His-tag, P. pastoris X-33 (codon-optimized; also made in Hi5 insect cells), Ni-NTA purified
T2 sequence (Q8WSF3 37-660 G400V limits assumed): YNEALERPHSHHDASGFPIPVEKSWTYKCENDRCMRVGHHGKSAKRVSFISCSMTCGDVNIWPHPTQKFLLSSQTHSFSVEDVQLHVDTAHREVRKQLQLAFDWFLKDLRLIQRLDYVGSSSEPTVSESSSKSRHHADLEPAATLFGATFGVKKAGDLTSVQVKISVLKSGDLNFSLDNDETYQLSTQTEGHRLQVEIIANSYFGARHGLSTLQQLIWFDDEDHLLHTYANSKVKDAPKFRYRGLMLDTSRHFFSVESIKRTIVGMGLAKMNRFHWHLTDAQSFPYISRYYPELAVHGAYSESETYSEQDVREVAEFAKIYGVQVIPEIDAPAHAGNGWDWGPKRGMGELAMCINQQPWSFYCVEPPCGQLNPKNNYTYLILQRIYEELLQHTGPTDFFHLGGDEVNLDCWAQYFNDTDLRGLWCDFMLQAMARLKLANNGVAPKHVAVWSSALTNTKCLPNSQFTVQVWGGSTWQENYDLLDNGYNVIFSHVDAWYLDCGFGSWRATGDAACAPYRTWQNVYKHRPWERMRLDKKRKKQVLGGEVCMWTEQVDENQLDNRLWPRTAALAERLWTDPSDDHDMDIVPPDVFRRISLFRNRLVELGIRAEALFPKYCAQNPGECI

T3: CeHEX-4 (Caenorhabditis HEX-4) (Caenorhabditis elegans, UniProt Q8WTK2)
T3 sequence (Q8WTK2 25-491): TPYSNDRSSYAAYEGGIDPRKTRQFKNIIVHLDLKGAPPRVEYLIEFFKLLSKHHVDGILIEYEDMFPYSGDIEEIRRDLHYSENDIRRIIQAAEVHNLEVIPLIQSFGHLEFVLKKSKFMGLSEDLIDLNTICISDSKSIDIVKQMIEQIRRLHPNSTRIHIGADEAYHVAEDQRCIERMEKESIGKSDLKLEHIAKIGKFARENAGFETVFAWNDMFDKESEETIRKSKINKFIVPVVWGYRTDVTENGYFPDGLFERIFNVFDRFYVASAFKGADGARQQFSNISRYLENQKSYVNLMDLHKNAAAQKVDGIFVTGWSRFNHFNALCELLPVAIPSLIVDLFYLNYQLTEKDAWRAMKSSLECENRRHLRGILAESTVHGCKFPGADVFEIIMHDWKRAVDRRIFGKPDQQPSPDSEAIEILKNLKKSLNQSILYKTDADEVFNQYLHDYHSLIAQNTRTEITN


Legend:
[1] = biological target: T1, DmFDL (Drosophila melanogaster FDL); assay: p-nitrophenol release, A405; type: biochemical; conditions: 5 mM substrate, McIlvaine buffer, 30°C
[2] = biological target: T2, DmFDL (Drosophila melanogaster FDL); assay: p-nitrophenol release, A405; type: biochemical; conditions: 5 mM substrate, McIlvaine buffer, 30°C
[3] = biological target: T3, CeHEX-4 (Caenorhabditis HEX-4); assay: inhibition of pNP-β-GalNAc hydrolysis (A405), Cheng-Prusoff from IC50; Dixon plot; type: biochemical; conditions: substrate pNP-β-GalNAc, McIlvaine buffer, 37°C
[4] = substrate: CC(=O)N[C@H]1[C@H](Oc2ccc([N+](=O)[O-])cc2)O[C@H](CO)[C@@H](O)[C@@H]1O; assay: p-nitrophenol release, A405, non-linear fit; type: biochemical, Caenorhabditis elegans; conditions: McIlvaine buffer at optimal pH (5-6), 37°C
[5] = substrate: CC(=O)N[C@H]1[C@H](Oc2ccc([N+](=O)[O-])cc2)O[C@H](CO)[C@H](O)[C@@H]1O; assay: p-nitrophenol release, A405, non-linear fit; type: biochemical, Caenorhabditis elegans; conditions: McIlvaine buffer at optimal pH (5-6), 37°C
[6] = substrate: CC(=O)N[C@H]1[C@H](Oc2ccc([N+](=O)[O-])cc2)O[C@H](CO)[C@@H](O)[C@@H]1O; assay: purified protein, by the assay type; set-up: p-nitrophenol release from pNP-glycoside substrate, A405, non-linear Michaelis-Menten fit
Protocol: (§1) Determination of Km, specific activity, kcat and Ki Standard enzymatic activity assays were performed using pNP-β-GlcNAc (Sigma, USA) and pNP-β-GalNAc (Sigma, USA) as a substrate. The assays were performed at a substrate concentration of 5 mM in McIlvaine buffer, pH 4.0–6.0 at 30°C for Drosophila FDL and at 37°C for the other hexosaminidases. The total reaction volume was 40 µL and incubation time was 2 h. All purified enzymes were tested for additional activities using a range of p-nitrophenyl-sugars as substrates at a concentration of 5 mM for 4 h. After the addition of 200 µL of 0.4 M glycine/NaOH pH 10.4, A405nm was determined on a Tecan Infinite M200 microtiter plate reader (Tecan, Austria). All enzymes were appropriately diluted for measurements in order to measure reactions within the linear range of the assay. Enzyme units are given in µmol product (nitrophenol) per minute.

[7] = substrate: CC(=O)N[C@H]1[C@H](Oc2ccc([N+](=O)[O-])cc2)O[C@H](CO)[C@H](O)[C@@H]1O; assay: purified protein, by the assay type; set-up: p-nitrophenol release from pNP-glycoside substrate, A405, non-linear Michaelis-Menten fit
Protocol: as §1

Row | Molecule | Km [4] [µM] | kcat [4] [s⁻¹] | kcat/Km [4] [M⁻¹ s⁻¹] | Km [5] [µM] | kcat [5] [s⁻¹] | kcat/Km [5] [M⁻¹ s⁻¹] | other results
1 | CC(=O)N[C@H]1[C@H](Oc2ccc([N+](=O)[O-])cc2)O[C@H](CO)[C@H](O)[C@@H]1O [pNP-β-GalNAc, p-nitrophenyl-β-D-N-acetylgalactosaminide] | – | – | – | – | – | – | p-nitrophenol release, A405 [1]: the W506A mutant showed decreased activity toward pNP-β-GalNAc; p-nitrophenol release, A405 [2]: the Drosophila G400V mutant showed increased
2 | CC(=O)N[C@H]1C(O)O[C@H](CO)[C@H](O)[C@@H]1O (stereo partly shown) [GalNAc, N-acetylgalactosamine] | – | – | – | – | – | – | Ki [3]: 1 mM
3 | CeHEX-4 (Caenorhabditis HEX-4) (Caenorhabditis elegans) (protein) TPYSNDRSSYAAYEGGIDPRKTRQFKNIIVHLDLKGAPPRVEYLIEFFKLLSKHHVDGILIEYEDMFPYSGDIEEIRRDLHYSENDIRRIIQAAEVHNLEVIPLIQSFGHLEFVLKKSKFMGLSEDLIDLNTICISDSKSIDIVKQMIEQIRRLHPNSTRIHIGADEAYHVAEDQRCIERMEKESIGKSDLKLEHIAKIGKFARENAGFETVFAWNDMFDKESEETIRKSKINKFIVPVVWGYRTDVTENGYFPDGLFERIFNVFDRFYVASAFKGADGARQQFSNISRYLENQKSYVNLMDLHKNAAAQKVDGIFVTGWSRFNHFNALCELLPVAIPSLIVDLFYLNYQLTEKDAWRAMKSSLECENRRHLRGILAESTVHGCKFPGADVFEIIMHDWKRAVDRRIFGKPDQQPSPDSEAIEILKNLKKSLNQSILYKTDADEVFNQYLHDYHSLIAQNTRTEITN | 3470 ± 350 | 12.6 ± 1.4 | 2200 ± 100 | 590 ± 50 | 13.8 ± 1.4 | 19500 ± 2300 | –
4 | CeHEX-3 (C. elegans HEX-3) (Caenorhabditis elegans) (protein) TSQFKSTTTHARFVPEPSDPRLHPNSPLQAPKAQEPAAAETTKKPSRQPHHTTAKPRTENVEINGEKYPKLSPDGNLIPQRRIVHLDLKGAPYKPEFFTELFAFFNRIQATGILLEWEDMFPFKGRLRGAINKNAYSMETVEHILQEAQKHHLQIIPLVQTMGHLEWILKLEEFAHLREDTRFPQVICFSDENAWELIKEMIEEVANVHKKYGMSYFHIGADEAFQIGICNASITQIKKEFTRERLMLWHIARTARFVKEKYPETQVLAWHDMLASAMESDIEDYKLTELLQPVLWNYAEDLDIYLPRSTWMIVRNFRNVWGSSAWKGADGPARYSTNANHYLKNHESWIKQFTMVYKDFEVVEGLIMAGWSRYDHFAVLAETIPVALPTLAMSMETMIEGRPLAGNYPVTSELLQCTPPLDLGFTATGCKFPGNRIYELINEMYQKQMQLRTYRLDDYELNGWLSRVADDYSVSSHWYIDKIENMIEMHATPLEQLADDLRFEMERIFFKDTVDEFIFTYLGEDLEWFNRKRETIRKVSTSQTFPKRPFIESAKSEKTCT | 970 ± 700 | 0.1 | 200 ± 100 | 590 ± 140 | 5.2 ± 1 | 7800 ± 3000 | –
5 | DmFDL (Drosophila melanogaster FDL) (Drosophila melanogaster) (protein, soluble form without transmembrane domain, alpha-factor secretion signal, N-terminal His-tag, P. pastoris X-33 (codon-optimized; also made in Hi5 insect cells), Ni-NTA purified) YNEALERPHSHHDASGFPIPVEKSWTYKCENDRCMRVGHHGKSAKRVSFISCSMTCGDVNIWPHPTQKFLLSSQTHSFSVEDVQLHVDTAHREVRKQLQLAFDWFLKDLRLIQRLDYVGSSSEPTVSESSSKSRHHADLEPAATLFGATFGVKKAGDLTSVQVKISVLKSGDLNFSLDNDETYQLSTQTEGHRLQVEIIANSYFGARHGLSTLQQLIWFDDEDHLLHTYANSKVKDAPKFRYRGLMLDTSRHFFSVESIKRTIVGMGLAKMNRFHWHLTDAQSFPYISRYYPELAVHGAYSESETYSEQDVREVAEFAKIYGVQVIPEIDAPAHAGNGWDWGPKRGMGELAMCINQQPWSFYCGEPPCGQLNPKNNYTYLILQRIYEELLQHTGPTDFFHLGGDEVNLDCWAQYFNDTDLRGLWCDFMLQAMARLKLANNGVAPKHVAVWSSALTNTKCLPNSQFTVQVWGGSTWQENYDLLDNGYNVIFSHVDAWYLDCGFGSWRATGDAACAPYRTWQNVYKHRPWERMRLDKKRKKQVLGGEVCMWTEQVDENQLDNRLWPRTAALAERLWTDPSDDHDMDIVPPDVFRRISLFRNRLVELGIRAEALFPKYCAQNPGECI | – | – | – | – | – | – | Km [6]: 1400 ± 80 µM; kcat [6]: 48.2 ± 2.2 s⁻¹; kcat/Km [6]: 42000 ± 1800 M⁻¹ s⁻¹; Km [7]: 520 ± 30 µM; kcat [7]: 5.6 ± 0.1 s⁻¹; kcat/Km [7]: 11900 ± 800 M⁻¹ s⁻¹
6 | CeHEX-2 (C. elegans HEX-2) (Caenorhabditis elegans) (protein, soluble form without transmembrane domain, alpha-factor secretion signal, C-terminal His-tag, P. pastoris X-33, Ni-NTA purified) SYPKGGISQRALDSMQKEPQTPVLVQKRENFEESIDVAVEQESKKENPFVNQQASTENAKPITQEVKIERPSRDNEFYKNVVIHFDLKGAPPKVDYFLDLLRLIAKGGATGILLEWEDMFPWTGKLEQFKNTDAYSESDVDMILSEATKLKLDVIPLVQTFGHLEWILKYEEMRKYRENDAYPQVLCLGNEEGVEFVREMIRQVAKKHAKYGIPFFHIGADEAFEFGVCQESLDWIKKNGKNGRKQLLALAHLKAIAEFAKQQTGDSTQILAWHDMLKDFDSRLIKNLELGQIIQPVVWDYSENIITLNDYIFSALAENFPTMWASSAYKGANYPSASTSEVRHYETNNRNWIRTKQNQERKFKNGFQGIIVTGWQRYDHLAGLCETLPIGTASMMLQMQIALNAPALDLEGTRQKAATLLECQGFNVDGVKVVSNQCKYRGFQTYLIYQSEVPNLFARIDSELSKNHHLMGWANRYNRKYNISQNWYHREMLPFVQQLVGQYDRVESDLRASMKDLYFENTIDEFIYENLGEMSEKLHGYLEEIQRLDKLRAWPKRHFPIKK | 230 ± 150 | 8.6 ± 0.8 | 22000 ± 3600 | 410 ± 80 | – | – | –

— paper PMC4339880, “Enzymatic properties and subtle differences in the substrate specificity of phylogenetically distinct invertebrate N-glycan processing hexosaminidases” (Glycobiology, 2014)
